Laboratory results: patent US20120207777A1 (Novartis, published 2012)

Target: the molecule itself
Assay: gel filtration and gel analysis with and without DTT (self-association)

B1: Recombinant His-tagged AcfD (orf3526) from strain IHE3034 without a leader peptide (other)
chain: CDGGGSGSSSDTPSVDSGSGTLPEVKPDPTPTPEPTPEPTPDPEPTPDPTPDPEPTPEPEPEPVPTKTGYLTLGGSQRVTGATCNGESSDGFTFTPGNTVSCVVGSTTIATFNTQSEAARSLRAVDKVSFSLEDAQELANSENKKTNAISLVTSSDSCPADAEQLCLTFSSVVDRARFEKLYKQIDLATDNFSKLVNEEVENNAATDKAPSTHTSTVVPVTTEGTKPDLNASFVSANAEQFYQYQPTEIILSEGQLVDSLGNGVAGVDYYTNSGRGVTDENGKFSFSWGETISFGIDTFELGSVRGNKSTIALTELGDEVRGANIDQLIHRYSTTGQNNTRVVPDDVRKVFAEYPNVINEIINLSLSNGATLDEGDQNVVLPNEFIEQFKTGQAKEIDTAICAKTDGCNEARWFSLTTRNVNDGQIQGVINKLWGVDTNYQSVSKFHVFHDSTNFYGSTGNARGQAVVNISNSAFPILMARNDKNYWLAFGEKRAWDKNELAYITEAPSIVQPENVTRDTATFNLPFISLGQVGEGKLMVIGNPHYNSILRCPNGYSWGGGVNSKGECTLSGDSDDMKHFMQNVLRYLSNDIWQPNTKSIMTVGTNLENVYFKKAGQVLGNSAPFAFHEDFTGITVKQLTSYGDLNPEEIPLLILNGFEYVTQWSGDPYAVPLRADTSKPKLTQQDVTDLIAYLNKGGSVLIMENVMSNLKEESASSFVRLLDAAGLSMALNKSVVNNDPQGYPDRVRQRRATGIWVYERYPAADGAQPPYTIDPNTGEVTWKYQQDNKPDDKPKLEVASWQEEVEGKQVTRYAFIDEAEYTTEESLEAAKAKIFEKFPGLQECKDSTYHYEINCLERRPGTDVPVTGGMYVPRYTQLNLDADTAKAMVQAADLGTNIQRLYQHELYFRTKGSKGERLNSVDLERLYQNMSVWLWNDTKYRYEEGKEDELGFKTFTEFLNCYANDAYAGGTKCSADLKKSLVDNNMIYGDGSSKAGMMNPSYPLNYMEKPLTRLMLGRSWWDLNIKVDVEKYPGSVSAKGESVTENISLYSNPTKWFAGNMQSTGLWAPAQQDVTIKSSASVPVTVTVALADDLTGREKHEVALNRPPRVTKTYTLEANGEVTFKVPYGGLIYIKGDSKDDVSANFTFTGVVKAPFYKDGEWKNDLDSPAPLGELESASFVYTTPKKNLEASNFTGGVAEFAKDLDTFASSMNDFYGRNDEDGKHRMFTYKNLTGHKHRFTNDVQISIGDAHSGYPVMNSSFSTNSTTLPTTPLNDWLIWHEVGHNAAETPLNVPGATEVANNVLALYMQDRYLGKMNRVADDITVAPEYLDESNGQAWARGGAGDRLLMYAQLKEWAEENFDIKQWYPDGELPKFYSDRKGMKGWNLFQLMHRKARGDDVGNSTFGGKNYCAESNGNAADTLMLCASWVAQADLSEFFKKWNPGASAYQLPGATEMSFQGGVSSSAYSTLASLKLPKPEKGPETINKVTEHKMSAE
notes: Expressed without the leader peptide; also called 3526 (his tag, leader peptide removed); not shown: His tag
- binding result: binds
